Results published in paper PMC9482650, “Quantitative fragmentomics allow affinity mapping of interactomes” (Nature Communications, 2022).
Substitutions are numbered along the chain they refer to.

T1: DLG3_1, Q92796
T1 sequence (Q92796 125-227, limits assumed, looked up): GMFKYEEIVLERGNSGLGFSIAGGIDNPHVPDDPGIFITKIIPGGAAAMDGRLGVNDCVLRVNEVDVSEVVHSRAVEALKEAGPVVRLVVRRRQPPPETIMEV

T2: DVL3, Q92997
T2 sequence (Q92997 244-331, limits assumed, looked up): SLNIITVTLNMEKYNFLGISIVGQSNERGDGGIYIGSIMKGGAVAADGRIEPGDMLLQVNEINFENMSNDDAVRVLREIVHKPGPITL

T3: SNTG1, Q9NSN8
T3 sequence (Q9NSN8 52-150, limits assumed, looked up): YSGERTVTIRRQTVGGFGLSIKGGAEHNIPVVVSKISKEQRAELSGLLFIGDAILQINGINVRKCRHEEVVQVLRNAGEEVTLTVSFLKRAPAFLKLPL

T4: LIN7A, O14910
T4 sequence (O14910 103-200, limits assumed, looked up): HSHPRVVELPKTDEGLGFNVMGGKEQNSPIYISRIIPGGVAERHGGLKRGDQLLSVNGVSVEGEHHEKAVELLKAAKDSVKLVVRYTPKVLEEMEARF

T5: PDZRN3_1, Q9UPQ7
T5 sequence (Q9UPQ7 244-349, limits assumed, looked up): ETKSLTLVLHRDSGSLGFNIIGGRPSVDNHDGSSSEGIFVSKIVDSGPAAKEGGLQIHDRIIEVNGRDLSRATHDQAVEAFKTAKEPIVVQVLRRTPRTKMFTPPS

T6: DLG3_2, Q92796
T6 sequence (Q92796 221-321, limits assumed, looked up): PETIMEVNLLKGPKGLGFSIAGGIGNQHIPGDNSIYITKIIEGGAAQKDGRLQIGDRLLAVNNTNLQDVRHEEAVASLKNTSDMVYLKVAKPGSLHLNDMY

T7: LIN7B, Q9HAP6
T7 sequence (Q9HAP6 88-185, limits assumed, looked up): T4 sequence (O14910 103-200, limits assumed, looked up) with S2A, V20I, I35V, E42D, H65Q, K77Q, D78G, K89R

T8: MPP6, Q9NZW5
T8 sequence (Q9NZW5 125-219, limits assumed, looked up): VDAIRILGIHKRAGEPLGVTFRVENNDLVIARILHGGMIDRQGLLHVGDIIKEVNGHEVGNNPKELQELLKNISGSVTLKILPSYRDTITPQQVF

T9: APBA2_1, Q99767
T9 sequence (Q99767 563-664, limits assumed, looked up): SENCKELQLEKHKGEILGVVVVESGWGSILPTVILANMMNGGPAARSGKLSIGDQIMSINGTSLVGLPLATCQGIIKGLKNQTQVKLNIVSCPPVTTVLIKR

T10: FRMPD1, Q5SYB0
T10 sequence (Q5SYB0 52-145, limits assumed, looked up): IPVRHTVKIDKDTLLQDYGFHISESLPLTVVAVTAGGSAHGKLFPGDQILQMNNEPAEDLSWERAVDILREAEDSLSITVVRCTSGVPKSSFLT

T11: PCLO, Q9Y6V0
T11 sequence (Q9Y6V0 4491-4600, limits assumed, looked up): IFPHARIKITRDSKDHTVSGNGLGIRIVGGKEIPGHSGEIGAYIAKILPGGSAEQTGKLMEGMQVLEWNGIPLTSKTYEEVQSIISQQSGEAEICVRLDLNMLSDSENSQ

T12: GRIP1_2, Q9Y3R0
T12 sequence (Q9Y3R0 145-248, limits assumed, looked up): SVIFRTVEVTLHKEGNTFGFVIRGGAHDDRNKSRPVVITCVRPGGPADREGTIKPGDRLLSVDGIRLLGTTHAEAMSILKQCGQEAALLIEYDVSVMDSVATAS

B1: CCRL2, O00421 (peptide)
chain: REEPDHSTEV

biological target: GRID2IP_1, A4D2P6; assay: holdup assay; parameters: key: below the threshold = too weak to quantify, mostly under pKd 3.1 to 4; conditions: plain residues with an end cap or a label only (N-terminal biotin on a linker: ado-ado)
Sequence (A4D2P6 1-87): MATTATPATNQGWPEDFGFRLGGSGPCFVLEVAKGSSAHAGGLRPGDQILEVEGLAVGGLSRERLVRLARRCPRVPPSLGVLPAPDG

Binder	pKd
B1	below the threshold

biological target: SCRIB_3, Q14160; assay: holdup assay; parameters: key: below the threshold = too weak to quantify, mostly under pKd 3.1 to 4; conditions: plain residues with an end cap or a label only (N-terminal biotin on a linker: ado-ado)
Sequence (Q14160 999-1103): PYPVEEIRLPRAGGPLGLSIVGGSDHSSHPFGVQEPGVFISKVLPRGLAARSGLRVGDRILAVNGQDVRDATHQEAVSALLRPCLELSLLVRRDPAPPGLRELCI

Binder	pKd
B1	4.35

biological target: HTRA2, O43464; assay: holdup assay; parameters: key: below the threshold = too weak to quantify, mostly under pKd 3.1 to 4; conditions: plain residues with an end cap or a label only (N-terminal biotin on a linker: ado-ado)
Sequence (O43464 355-458): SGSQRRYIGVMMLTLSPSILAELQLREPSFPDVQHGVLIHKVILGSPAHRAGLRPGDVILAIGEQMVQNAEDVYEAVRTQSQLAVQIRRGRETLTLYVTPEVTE

Binder	pKd
B1	3.54

biological target: T1, DLG3_1, Q92796; assay: holdup assay; parameters: key: below the threshold = too weak to quantify, mostly under pKd 3.1 to 4; conditions: plain residues with an end cap or a label only (N-terminal biotin on a linker: ado-ado)

Binder	pKd
B1	4.26

biological target: NHERF4_1, Q86UT5-2; assay: holdup assay; parameters: key: below the threshold = too weak to quantify, mostly under pKd 3.1 to 4; conditions: plain residues with an end cap or a label only (N-terminal biotin on a linker: ado-ado)
Sequence (Q86UT5 other isoform, or with tags, fused parts or gaps): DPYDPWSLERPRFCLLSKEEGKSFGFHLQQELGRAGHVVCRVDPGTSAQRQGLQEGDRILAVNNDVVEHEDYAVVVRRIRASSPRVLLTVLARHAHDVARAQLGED

Binder	pKd
B1	3.53

biological target: T2, DVL3, Q92997; assay: holdup assay; parameters: key: below the threshold = too weak to quantify, mostly under pKd 3.1 to 4; conditions: plain residues with an end cap or a label only (N-terminal biotin on a linker: ado-ado)

Binder	pKd
B1	3.48

biological target: T3, SNTG1, Q9NSN8; assay: holdup assay; parameters: key: below the threshold = too weak to quantify, mostly under pKd 3.1 to 4; conditions: plain residues with an end cap or a label only (N-terminal biotin on a linker: ado-ado)

Binder	pKd
B1	4.36

biological target: T4, LIN7A, O14910; assay: holdup assay; parameters: key: below the threshold = too weak to quantify, mostly under pKd 3.1 to 4; conditions: plain residues with an end cap or a label only (N-terminal biotin on a linker: ado-ado)

Binder	pKd
B1	below the threshold

biological target: FRMPD2_2, Q68DX3; assay: holdup assay; parameters: key: below the threshold = too weak to quantify, mostly under pKd 3.1 to 4; conditions: plain residues with an end cap or a label only (N-terminal biotin on a linker: ado-ado)
Sequence (Q68DX3 944-1038): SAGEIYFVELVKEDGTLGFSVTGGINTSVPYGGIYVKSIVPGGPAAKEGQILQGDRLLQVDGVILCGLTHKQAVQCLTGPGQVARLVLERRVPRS

Binder	pKd
B1	4.16

biological target: Inadl_8, Q8NI35; assay: holdup assay; parameters: key: below the threshold = too weak to quantify, mostly under pKd 3.1 to 4; conditions: plain residues with an end cap or a label only (N-terminal biotin on a linker: ado-ado)
Sequence (Q8NI35 1425-1530): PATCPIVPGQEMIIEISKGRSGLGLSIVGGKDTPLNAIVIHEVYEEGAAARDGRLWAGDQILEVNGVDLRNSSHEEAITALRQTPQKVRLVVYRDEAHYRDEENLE

Binder	pKd
B1	below the threshold

biological target: T5, PDZRN3_1, Q9UPQ7; assay: holdup assay; parameters: key: below the threshold = too weak to quantify, mostly under pKd 3.1 to 4; conditions: plain residues with an end cap or a label only (N-terminal biotin on a linker: ado-ado)

Binder	pKd
B1	4.2

biological target: T6, DLG3_2, Q92796; assay: holdup assay; parameters: key: below the threshold = too weak to quantify, mostly under pKd 3.1 to 4; conditions: plain residues with an end cap or a label only (N-terminal biotin on a linker: ado-ado)

Binder	pKd
B1	4.59

biological target: LAP2, Q96RT1; assay: holdup assay; parameters: key: below the threshold = too weak to quantify, mostly under pKd 3.1 to 4; conditions: plain residues with an end cap or a label only (N-terminal biotin on a linker: ado-ado)
Sequence (Q96RT1 other isoform, or with tags, fused parts or gaps): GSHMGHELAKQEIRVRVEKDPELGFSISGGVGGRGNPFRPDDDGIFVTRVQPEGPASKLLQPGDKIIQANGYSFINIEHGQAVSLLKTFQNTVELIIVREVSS

Binder	pKd
B1	4.15

biological target: GORASP2, Q9H8Y8; assay: holdup assay; parameters: key: below the threshold = too weak to quantify, mostly under pKd 3.1 to 4; conditions: plain residues with an end cap or a label only (N-terminal biotin on a linker: ado-ado)

Binder	pKd
B1	3.48

biological target: PDLIM1, O00151; assay: holdup assay; parameters: key: below the threshold = too weak to quantify, mostly under pKd 3.1 to 4; conditions: plain residues with an end cap or a label only (N-terminal biotin on a linker: ado-ado)
Sequence (O00151 1-87): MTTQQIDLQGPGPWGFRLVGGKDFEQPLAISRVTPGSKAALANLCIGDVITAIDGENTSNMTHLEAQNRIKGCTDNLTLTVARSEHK

Binder	pKd
B1	3.53

biological target: T7, LIN7B, Q9HAP6; assay: holdup assay; parameters: key: below the threshold = too weak to quantify, mostly under pKd 3.1 to 4; conditions: plain residues with an end cap or a label only (N-terminal biotin on a linker: ado-ado)

Binder	pKd
B1	below the threshold

biological target: T8, MPP6, Q9NZW5; assay: holdup assay; parameters: key: below the threshold = too weak to quantify, mostly under pKd 3.1 to 4; conditions: plain residues with an end cap or a label only (N-terminal biotin on a linker: ado-ado)

Binder	pKd
B1	below the threshold

biological target: TJP1_3, Q07157; assay: holdup assay; parameters: key: below the threshold = too weak to quantify, mostly under pKd 3.1 to 4; conditions: plain residues with an end cap or a label only (N-terminal biotin on a linker: ado-ado)
Sequence (Q07157 416-512): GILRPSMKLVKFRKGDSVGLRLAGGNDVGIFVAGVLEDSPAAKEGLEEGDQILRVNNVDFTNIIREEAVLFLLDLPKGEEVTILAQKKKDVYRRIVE

Binder	pKd
B1	3.48

biological target: IL16_4, Q14005; assay: holdup assay; parameters: key: below the threshold = too weak to quantify, mostly under pKd 3.1 to 4; conditions: plain residues with an end cap or a label only (N-terminal biotin on a linker: ado-ado)
Sequence (Q14005 1229-1329): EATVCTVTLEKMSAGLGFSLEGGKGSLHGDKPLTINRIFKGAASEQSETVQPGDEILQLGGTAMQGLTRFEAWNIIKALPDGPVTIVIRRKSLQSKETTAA

Binder	pKd
B1	below the threshold

biological target: HTRA1, Q92743; assay: holdup assay; parameters: key: below the threshold = too weak to quantify, mostly under pKd 3.1 to 4; conditions: plain residues with an end cap or a label only (N-terminal biotin on a linker: ado-ado)
Sequence (Q92743 360-477): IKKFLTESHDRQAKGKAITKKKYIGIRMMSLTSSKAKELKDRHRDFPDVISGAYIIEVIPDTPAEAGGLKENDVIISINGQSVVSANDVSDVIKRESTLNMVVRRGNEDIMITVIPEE

Binder	pKd
B1	4.44

biological target: ARHGEF12, Q9NZN5-2; assay: holdup assay; parameters: key: below the threshold = too weak to quantify, mostly under pKd 3.1 to 4; conditions: plain residues with an end cap or a label only (N-terminal biotin on a linker: ado-ado)
Sequence (Q9NZN5 other isoform, or with tags, fused parts or gaps): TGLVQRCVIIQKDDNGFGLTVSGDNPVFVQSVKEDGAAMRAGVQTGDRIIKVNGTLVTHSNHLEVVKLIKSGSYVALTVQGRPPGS

Binder	pKd
B1	4.37

biological target: T9, APBA2_1, Q99767; assay: holdup assay; parameters: key: below the threshold = too weak to quantify, mostly under pKd 3.1 to 4; conditions: plain residues with an end cap or a label only (N-terminal biotin on a linker: ado-ado)

Binder	pKd
B1	below the threshold

biological target: T10, FRMPD1, Q5SYB0; assay: holdup assay; parameters: key: below the threshold = too weak to quantify, mostly under pKd 3.1 to 4; conditions: plain residues with an end cap or a label only (N-terminal biotin on a linker: ado-ado)

Binder	pKd
B1	below the threshold

biological target: LNX1_3, Q8TBB1; assay: holdup assay; parameters: key: below the threshold = too weak to quantify, mostly under pKd 3.1 to 4; conditions: plain residues with an end cap or a label only (N-terminal biotin on a linker: ado-ado)
Sequence (Q8TBB1 500-596): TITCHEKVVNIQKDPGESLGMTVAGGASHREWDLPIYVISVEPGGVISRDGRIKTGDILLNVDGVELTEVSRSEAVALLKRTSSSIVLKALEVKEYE

Binder	pKd
B1	below the threshold

biological target: T11, PCLO, Q9Y6V0; assay: holdup assay; parameters: key: below the threshold = too weak to quantify, mostly under pKd 3.1 to 4; conditions: plain residues with an end cap or a label only (N-terminal biotin on a linker: ado-ado)

Binder	pKd
B1	below the threshold

biological target: T12, GRIP1_2, Q9Y3R0; assay: holdup assay; parameters: key: below the threshold = too weak to quantify, mostly under pKd 3.1 to 4; conditions: plain residues with an end cap or a label only (N-terminal biotin on a linker: ado-ado)

Binder	pKd
B1	3.5
